Patent US11427643B2, “Targeted protein degradation” (GLAXOSMITHKLINE INTELLECTUAL PROPERTY DEVELOPMENT LIMITED, priority 2017, dated 2022)

Assays:
NFAT-luc2 Jurkat cells = assay: Lenalidomide-induced degradation of anti-BCMA CAR constructs transfected in Jurkat cells (flow cytometry, BCMA-Fc staining); format: cell-based; conditions: 10 μM lenalidomide vs DMSO, 24 hour, FIG. 5
Experimental: NFAT-luc2 Jurkat cells (Promega) to a density of 2×10^5 cells/ml were cultured in RPMI medium 1640 (1×) without L-glutamine with phenol red (Gibco), 10% (v/v) Fetal Bovine Serum (FBS) Heat-Inactivated (Gibco), 1% (v/v) Minimum essential medium non-essential amino acids (MEM NEAA) (ThermoFisher), 1% (v/v) Sodium Pyruvate (Sigma), 1% (v/v) L-Glutamine (Gibco). 20 μg of plasmid DNA was mixed with 8×10^6 NFAT-luc2 Jurkat cells and cells were transfected using the 4D-Nucleofector (Lonza) with cell Line SE Nucleofector kit (Lonza) by following manufacturer instructions with program CL-120. Cells were incubated at 37° C. with 5% CO2 for 48 h. Lenalidomide at a stock concentration of 10 mM in 100% DMSO was diluted in Jurkat media to achieve a stock concentration of 250 μM. Using the 250 μM stock, NFAT-luc2 Jurkat cells were incubated at a final compound concentration of 10 μM or 0 μM (DMSO in media) for 24 hour at 37° C. with 5% CO2. Final DMSO concentration was 0.1% in all wells. Cells were then stained with AlexaFluor 647 conjugated BCMA-Fc to label the anti-BCMA CAR. Measurements were made using a Cytoflex S (Beckman Coulter) and data analysed using FlowJo.

[1] = system: primary T-cells co-cultured with ARH-77-10B5 cells; assay: Cytokine release from CAR-transduced primary T-cells co-cultured with BCMA-expressing ARH-77-10B5 cells, with or without lenalidomide (MSD V-plex); format: cell-based, human; conditions: 10 μM lenalidomide compared with no lenalidomide treatment; after antigen presentation, 24 h co-culture 1:1 with ARH-77-10B5; FIG. 7
Experimental: For lentiviral vector production, 3.0×10^7 LentiX 293T (HEK 293T) cells were seeded in 20 mL DMEM (Gibco) and were incubated overnight at 37° C. with 5% CO2. LentiX cells were transfected by mixing, for example, 21 μg of transfer vector containing the construct, 3.75 μg ViraSafe pRSV-Rev, 5.25 μg ViraSafe pCMV-VSVG, 7.5 μg ViraSafe pCgp V-(gag-pol), 75 μg jetPRIME (Polyplus) and […] jetPRIME Buffer (Polyplus). After 2 days, supernatants were clarified and virus was concentrated and purified by ultracentrifugation on a 20% sucrose cushion using Ultrapure sucrose (ThermoFisher) in 50 ml Oak Ridge PPCO ultracentrifugation tubes (ThermoFisher). Lentiviral vectors were produced for CONSTRUCT 4 and CONSTRUCT 5 using the method described above. […]
7 days after transduction, lenalidomide at a stock concentration of 10 mM in 100% DMSO was diluted in TEXMacs media to achieve a stock concentration of 250 μM, and 5×10^4 T-cells were incubated at a final compound concentration of 10 μM or 0 μM (DMSO in media) for 16 h at 37° C. with 5% CO2. […] Supernatants were analysed for cytokine levels using MSD V-plex Proinflammatory Panel 1 Human Kit (MSD) and MSD Sector Imager (MSD).

B1: CONSTRUCT 4: conventional anti-BCMA CAR: scFv, CD8a hinge and transmembrane, 4-1BB co-stimulatory, CD3 intracellular domains; no degron (control) (protein)
chain: MALPVTALLLPLALLLHAARPQVQLVQSGAEVKKPGSSVKVSCKGSGYTFTNYWMHWVRQAPGQGLEWIGATYRGHSDTYYNQKFKGRATLTADTSTSTAYMELSSLRSEDTAVYYCTRGAIYDGYDVLDNWGQGTLVTVSSGGGGSGGGGSGGGGSGGGGSDIQMTQSPSSLSASVGDRVTITCSASQDISNYLNWYQQKPGKAPKLLIYYTSNLHSGVPSRFSGSGSGTDFTLTISSLQPEDFATYYCQQYRKLPWTFGQGTKLEIKRFVPVFLPAKPTTTPAPRPPTPAPTIASQPLSLRPEACRPAAGGAVHTRGLDFACDIYIWAPLAGTCGVLLLSLVITLYCNHRNKRGRKKLLYIFKQPFMRPVQTTQEEDGCSCRFPEEEEGGCELRVKFSRSADAPAYQQGQNQLYNELNLGRREEYDVLDKRRGRDPEMGGKPRRKNPQEGLYNELQKDKMAEAYSEIGMKGERRRGKGHDGLYQGLSTATKDTYDALHMQALPPR
modifications: Construct 4 Amino Acid Sequence
Q: With B1 as the molecule, how does the “expression level of CAR molecules on the surface of Jurkat cells” value (NFAT-luc2 Jurkat cells) read?
A: Its value is “unaffected”.

Q: What about the “TNFα, IL2 and IFN-γ levels in T-cell supernatants” value [1] of the same molecule?
A: Its value is “increased levels of cytokines concentrations”.
